Numbering of substitutions follows the chain as printed.

The text below walks through data of patent publication US20200407442A1 (WUXI BIOLOGICS IRELAND, published 2020).

Assay in all cases: ELISA, antibody coated, LAG-3 D12.mFc mutant in supernatant, normalised to control mutants
Test [1] addresses T1, human LAG-3-ECD.D12.mFc mutant G145A (human, UniProt P18627 37-252).
T1 construct: Alanine scanning mutant; construct limits as for m26
T1 chain: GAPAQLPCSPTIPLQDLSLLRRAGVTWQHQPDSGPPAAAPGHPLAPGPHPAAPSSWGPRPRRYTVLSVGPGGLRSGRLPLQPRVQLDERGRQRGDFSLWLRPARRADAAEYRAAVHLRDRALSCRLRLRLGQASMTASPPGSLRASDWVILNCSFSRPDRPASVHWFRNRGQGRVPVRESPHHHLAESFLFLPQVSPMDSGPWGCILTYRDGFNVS
The procedure:
(§1) For ELISA binding assay, the antibody 1.53.3-uAb-IgG4k or 3.40.19-uAb-hIgG4L (2 μg/mL) was coated in plates. After interacting with the supernatant that contains quantified LAG-3 mutants or human LAG-3-ECD.D12.mFc protein, HRP conjugated anti-mFc antibody (1:5000; Bethyl, USA) was added as a detection antibody. Absorbance was normalized according to the average absorbance of control mutants. After setting an additional cutoff to the binding fold change (<0.75), the final determined epitope residues were identified.

Test [2] deals with T2, human LAG-3-ECD.D12.mFc mutant V61A (human, UniProt P18627 37-252).
T2 construct: Alanine scanning mutant; construct limits as for m26
T2 chain: T1 chain with V25A, A109G
The procedure:
as §1

Test [3] has as its target T3, human LAG-3-ECD.D12.mFc mutant Y147A (human, UniProt P18627 37-252).
T3 construct: Alanine scanning mutant; construct limits as for m26
T3 chain: T1 chain with A109G, Y111A
The method, then:
as §1

The target of test [4] is T4, human LAG-3-ECD.D12.mFc mutant H65A (human, UniProt P18627 37-252).
T4 construct: Alanine scanning mutant; construct limits as for m26
T4 chain: T1 chain with H29A, A109G
The method, then: as §1

Test [5] has as its target T5, human LAG-3-ECD.D12.mFc mutant L164A (human, UniProt P18627 37-252).
T5 construct: Alanine scanning mutant; construct limits as for m26
T5 chain: T1 chain with A109G, L128A
The method, then:
as §1

In test [6] the target is T6, human LAG-3-ECD.D12.mFc mutant L153A (human, UniProt P18627 37-252).
T6 construct: Alanine scanning mutant; construct limits as for m26
T6 chain: T1 chain with A109G, L117A
The method, then:
as §1

In test [7] the target is T7, human LAG-3-ECD.D12.mFc mutant L122A (human, UniProt P18627 37-252).
T7 construct: Alanine scanning mutant; construct limits as for m26
T7 chain: T1 chain with L86A, A109G
The method, then: as §1

The target of test [8] is T8, human LAG-3-ECD.D12.mFc mutant W63A (human, UniProt P18627 37-252).
T8 construct: Alanine scanning mutant; construct limits as for m26
T8 chain: T1 chain with W27A, A109G
The method, then:
as §1

B1: 3.40.19-uAb-IgG4L (antibody, V domains shown)
VH: QLQLQESGPGLVKPSETLSLTCTVSGDSISSTSYYWGWIRQPPGKGLEWIGSFYYSGSTYYNPSLKSRVTISVDTSKNQFSLKLNSVTAADTAVYYCARMQLWSYDVDVWGQGTTVTVSS
VL: QSALTQPASVSGSPGQSITISCTGTSSDVGGYDYVAWYQQHPGKVPKLMIYDVSERPSGVSNRFSGSKSGNTASLTISGLQAEDEADYYCSSYTSTTTLVVFGGGTKLSVL
notes: Fully human antibody from OMT rats; IgG4 lambda by its name; also called 3.40.19-uAb-hIgG4L
Regarding B1, the “Fold Change” value in test [1] was 0.466; in test [2], 0.514; in test [3], 0.19; in test [4], 0.489; in test [5], 0.278; in test [6], 0.632. Moreover, the “Fold Change” value came out at 0.391 in test [7] and 0.171 in test [8].

B2: 1.53.3-uAb-IgG4k (antibody, V domains shown)
VH: QVQLQQWGAGLLKPSETLSLTCGVYGGSFSGYYWSWIRQPPGMGLEWIGEINHRGNTNYNPSLKSRVTISEDTSKNQFSLRLSSVTAADTAVYFCTRGEDYSDYDYYGDFWGQGTLVTVSS
VL: EIVLTQSPATLSLSQGERATLSCRASQSISSYLAWYQQKPGQAPRLLIYAASNRATGIPARFSGSGSGTDFTLTISSLEPEDFAIYYCQQRSNWPLTFGGGTKVEIK
notes: Fully human antibody from OMT rats; IgG4 kappa by its name
For B2, the “Fold Change” value in test [1] was found to be 0.692; in test [2], 0.637; in test [3] it was 0.637; in test [4], 0.627; in test [5] it was 0.586; in test [6] it was 0.749. Besides, the “Fold Change” value in test [7] is 0.607; in test [8], 0.585.
